Measurements published in patent US20130324477.

Target: T1, recombinant filaggrin-2 (FLG2), positions 2 to 213 of Q5D862, fused to a Thioredoxin-His-S.Tag affinity label, Q5D862
T1 chain: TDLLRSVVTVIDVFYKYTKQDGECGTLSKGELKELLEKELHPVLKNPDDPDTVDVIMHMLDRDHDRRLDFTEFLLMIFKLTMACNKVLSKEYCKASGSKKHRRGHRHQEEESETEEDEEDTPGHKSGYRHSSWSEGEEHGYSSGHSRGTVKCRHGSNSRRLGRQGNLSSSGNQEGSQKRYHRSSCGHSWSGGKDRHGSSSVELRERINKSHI

B1: recombinant 28 kDa SASPase (SASPase-28), positions 85 to 343 of Q53RT3 (protein)
chain: MAGSGARSEEGRRQHAFVPEPFDGANVVPNLWLHSFEVINDLNHWDHITKLRFLKESLRGEALGVYNRLSPQDQGDYGTVKEALLKAFGVPGAAPSHLPKEIVFANSMGKGYYLKGKIGKVPVRFLVDSGAQVSVVHPNLWEEVTDGDLDTLQPFENVVKVANGAEMKILGVWDTAVSLGKLKLKAQFLVANASAEEAIIGTDVLQDHNAILDFEHRTCTLKGKKFRLLPVGGSLEDEFDLELIEEDPSSEEGRQELSH
B1 was tested, and the “enzymatic activity of SASPase (hydrolysis of Dabcyl-QIDRIMEK-Edans, EDANS fluorescence at 340/490 nm)” value was “the enzymatic activity of SASPase is significantly increased in the presence of an increasing concentration of FLG2-Hs”.
